T1: monomeric recombinant KAAG1 (Homo sapiens (Human), UniProt Q9UBP8 1-84, limits assumed)
T1 construct: Analyte of the Biacore experiment
T1 sequence: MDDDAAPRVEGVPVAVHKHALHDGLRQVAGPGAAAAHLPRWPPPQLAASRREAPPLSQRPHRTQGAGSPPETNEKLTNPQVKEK

T2: recombinant Fc-KAAG1 fusion protein (full-length KAAG1) (human, UniProt Q9UBP8 1-84, biotinylated with NHS-biotin (sites not given))
T2 construct: also called recombinant human KAAG1; not shown: human Fc domain encoded by expression plasmid pYD5; vector-encoded residues between the Fc and the BamHI cloning site of pYD5
T2 sequence: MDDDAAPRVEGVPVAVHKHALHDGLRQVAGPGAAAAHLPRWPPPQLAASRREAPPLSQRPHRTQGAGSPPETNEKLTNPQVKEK


Experiments:
[1] = molecular target: T1, monomeric recombinant KAAG1; test: SPR (Biacore): antibody captured on immobilised anti-human Fc, monomeric recombinant KAAG1 injected, global 1:1 fit; average KD; humanized light + humanized heavy chain, 'HH'
Protocol: (§1) More precise measurements were conducted using Surface Plasmon Resonance (SPR) in a Biacore instrument. Kinetic analysis was used to compare the affinity of the chimeric 3D3 with the h3D3 as well as with hybrid antibodies encompassing different permutations of the light and heavy chains (see FIG. 18B). Briefly, anti-human Fc was immobilized on the Biacore sensor chip and chimeric or h3D3 was captured on the chip. Different concentrations of monomeric recombinant KAAG1 were injected and the data were globally fitted to a simple 1:1 model to determine the kinetic parameters of the interaction.

[2] = molecular target: T1, monomeric recombinant KAAG1; test: SPR (Biacore), antibody captured by anti-human Fc, 1:1 fit
Protocol: as §1

[3] = molecular target: T2, recombinant Fc-KAAG1 fusion protein …; test: ELISA on recombinant Fc-KAAG1
Protocol: The 96-well master plate of monoclonal preparations contained different concentrations of purified anti-KAAG1 Fabs in each well. A second stock master plate was prepared by diluting the Fabs to a final concentration of 10 μg/ml from which all subsequent dilutions were performed for ELISA measurements. To carry out the binding of Fc-KAAG1 to the monoclonal preparations, the Fc-KAAG1 was biotinylated with NHS-biotin (Pierce, Rockford, Ill.) and 10 ng/well was coated in a streptavidin 96-well plate. One nanogram of each Fab monoclonal preparation was added to each well and incubated at room temperature for 30 minutes. Bound antibody was detected with HRP-conjugated mouse anti-kappa light chain antibody in the presence of TMB liquid substrate (Sigma-Aldrich Canada Ltd., Oakville, ON) and readings were conducted at 450 nm in microtiter plate reader.
Since an antibody harboring effector functions was required, the h3D3 was assembled as a human IgG₁. ELISA-based assays were performed to directly compare the ability of the h3D3 […]. The methods used to perform these tests were as described in Example 3 using recombinant Fc-KAAG1.

[4] = molecular target: T1, monomeric recombinant KAAG1; test: SPR (Biacore): antibody captured on immobilised anti-human Fc, monomeric recombinant KAAG1 injected, global 1:1 fit; average KD; chimeric light + humanized heavy chain, 'CH'
Protocol: as §1

Row | Kd [1] | Ka [2] | koff [2] | kon [2] | EC50 (read off the curve) [3] | Kd [4] | Binder
1 | 0.439 nM | 2.28e+09 M⁻¹ | 0.00111 s⁻¹ | 2.53e+06 M⁻¹ s⁻¹ | ~0.1 µg/mL | – | humanized 3D3 anti-KAAG1 antibody (human IgG1) (antibody, V domains shown, The leader residues before them are left out; also called h3D3; HH) VH: EVQLVQSGAEVKKPGASVKVSCKASGYIFTDYEIHWVRQAPGQGLEWMGVIDPETGNTAFNQKFKGRVTITADTSTSTAYMELSSLTSEDTAVYYCMGYSDYWGQGTLVTVSS VL: DIVMTQSPDSLAVSLGERATINCKSSQSLLNSNFQKNFLAWYQQKPGQPPKLLIYFASTRESSVPDRFSGSGSGTDFTLTISSLQAEDVAVYYCQQHYSTPLTFGQGTKLEIKR
2 | – | 1.98e+09 M⁻¹ | 0.00111 s⁻¹ | 2.2e+06 M⁻¹ s⁻¹ | – | 0.505 nM | 3D3 hybrid antibody: chimeric light chain expressed with the humanized heavy chain (antibody, human IgG1, V domains shown) VH: EVQLVQSGAEVKKPGASVKVSCKASGYIFTDYEIHWVRQAPGQGLEWMGVIDPETGNTAFNQKFKGRVTITADTSTSTAYMELSSLTSEDTAVYYCMGYSDYWGQGTLVTVSS VL: DIVMTQSPSSLAVSIGQKVTMNCKSSQSLLNSNFQKNFLAWYQQKPGQSPKLLIYFASTRESSIPDRFIGSGSGTDFTLTISSVQAEDLADYFCQQHYSTPLTFGAGTKLELKA
